Publication PMC2865183 (Nature chemical biology, 2009)

Biological target: the molecule itself
Assay: SEC

B1: VVD-36 M135I:M165I (domain or fragment, UniProt Q9C3Y6 37-186, looked up)
chain: HTLYAPGGYDIMGYLIQIMNRPNPQVELGPVDTSCALILCDLKQKDTPIVYASEAFLYMTGYSNAEVLGRNCRFLQSPDGMVKPKSTRKYVDSNTINTIRKAIDRNAEVQVEVVNFKKNGQRFVNFLTIIPVRDETGEYRYSMGFQCETE
fold increase in dimer affinity (against VVD-36): > 5 fold
